From patent US20200270359A1 (Genmab, published 2020)
Where a chain is given by its changes, count along the chain named. Numbers in names are those of the source.

T1: human (Homo sapiens) CD37 (human (Homo sapiens), UniProt P11049 1-281)
T1 construct: Full-length protein on cells: endogenous on Daudi cells, Raji cells and B cells in human blood; also called Leukocyte Antigen CD37; GP52-40
T1 sequence: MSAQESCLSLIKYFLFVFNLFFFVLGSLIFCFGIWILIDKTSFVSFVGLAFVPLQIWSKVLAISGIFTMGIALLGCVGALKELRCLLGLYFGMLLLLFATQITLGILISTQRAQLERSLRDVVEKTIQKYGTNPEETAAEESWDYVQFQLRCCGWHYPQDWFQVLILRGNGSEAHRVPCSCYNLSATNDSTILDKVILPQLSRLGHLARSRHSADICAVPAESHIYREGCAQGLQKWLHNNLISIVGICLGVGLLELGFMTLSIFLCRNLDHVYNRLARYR

T2: cynomolgus monkey (Macaca fascicularis) CD37 (cynomolgus monkey (Macaca fascicularis), UniProt P11049 1-281 (human entry))
T2 construct: also called mfCD37; Cynomolgus CD37
T2 chain: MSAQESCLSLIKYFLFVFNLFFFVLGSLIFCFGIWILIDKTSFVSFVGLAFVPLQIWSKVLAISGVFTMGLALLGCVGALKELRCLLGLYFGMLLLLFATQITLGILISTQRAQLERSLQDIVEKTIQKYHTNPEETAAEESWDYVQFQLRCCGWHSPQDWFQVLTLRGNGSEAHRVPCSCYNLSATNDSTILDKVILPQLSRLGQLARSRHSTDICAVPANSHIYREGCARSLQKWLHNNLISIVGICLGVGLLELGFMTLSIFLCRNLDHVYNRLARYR

B1: bsIgG1-016-H5L2-LC90S-F405L-E430Gx010-H5L2-K409R-E430G (bispecific antibody)
heavy 1: not shown
light 1: DVVMTQSPSTLSASVGDRVTITCQASQNIDSNLAWYQQKPGKAPKFLIYYASNLPFGVPSRFKGSGSGTEFTLTISSLQPDDFATYYCQSADVGSTYVAAFGGGTKVEIKRTVAAPSVFIFPPSDEQLKSGTASVVCLLNNFYPREAKVQWKVDNALQSGNSQESVTEQDSKDSTYSLSSTLTLSKADYEKHKVYACEVTHQGLSSPVTKSFNRGEC
heavy 2: not shown
light 2: AYDMTQSPSTLSASVGDRVTITCQASQNIIDYLAWYQQKPGKAPKLLIHKASTLASGVPSRFKGSGSGTEFTLTISSLQPDDFATYYCQQGYSNSNIDNTFGGGTKVEIKRTVAAPSVFIFPPSDEQLKSGTASVVCLLNNFYPREAKVQWKVDNALQSGNSQESVTEQDSKDSTYSLSSTLTLSKADYEKHKVYACEVTHQGLSSPVTKSFNRGEC
B2: IgG1-004-H5L2-E430G (antibody)
heavy: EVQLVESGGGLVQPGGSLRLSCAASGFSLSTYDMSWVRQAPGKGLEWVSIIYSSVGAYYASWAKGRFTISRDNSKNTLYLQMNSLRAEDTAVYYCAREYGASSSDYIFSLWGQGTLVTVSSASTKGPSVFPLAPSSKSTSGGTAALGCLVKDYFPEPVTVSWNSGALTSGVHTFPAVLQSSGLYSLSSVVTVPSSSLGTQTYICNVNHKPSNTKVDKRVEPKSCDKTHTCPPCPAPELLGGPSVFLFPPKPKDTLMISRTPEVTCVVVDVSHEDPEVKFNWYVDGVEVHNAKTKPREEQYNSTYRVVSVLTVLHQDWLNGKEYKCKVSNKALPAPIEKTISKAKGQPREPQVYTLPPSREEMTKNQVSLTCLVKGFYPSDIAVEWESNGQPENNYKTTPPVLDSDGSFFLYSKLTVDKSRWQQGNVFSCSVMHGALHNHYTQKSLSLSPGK
light: AQVLTQSPSPLSASVGDRVTITCQASQSVYNSQNLAWYQQKPGKAPKLLIYEASKLASGVPSRFKGSGSGTEFTLTISSLQPDDFATYYCQGEFSCISADCTAFGGGTKVEIKRTVAAPSVFIFPPSDEQLKSGTASVVCLLNNFYPREAKVQWKVDNALQSGNSQESVTEQDSKDSTYSLSSTLTLSKADYEKHKVYACEVTHQGLSSPVTKSFNRGEC
notes: IgG1,kappa with E430G (EU numbering)
B3: IgG1-016-H5L2-E430G (antibody)
heavy: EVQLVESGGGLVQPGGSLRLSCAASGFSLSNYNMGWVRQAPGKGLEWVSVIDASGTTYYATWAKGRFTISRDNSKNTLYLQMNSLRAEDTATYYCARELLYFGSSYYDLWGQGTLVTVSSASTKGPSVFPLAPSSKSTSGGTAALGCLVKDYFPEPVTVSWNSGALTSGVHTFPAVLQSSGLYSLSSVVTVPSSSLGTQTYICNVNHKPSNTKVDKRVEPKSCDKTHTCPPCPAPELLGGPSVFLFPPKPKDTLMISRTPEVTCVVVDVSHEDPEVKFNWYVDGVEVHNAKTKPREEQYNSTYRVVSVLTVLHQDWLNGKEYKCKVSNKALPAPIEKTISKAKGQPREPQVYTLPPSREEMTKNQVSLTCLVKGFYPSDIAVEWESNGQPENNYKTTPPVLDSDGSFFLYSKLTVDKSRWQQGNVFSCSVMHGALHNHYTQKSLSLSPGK
light: B1 light 1 with S90C
notes: as for B2
B4: IgG1-005-H1L2-E430G (antibody)
heavy: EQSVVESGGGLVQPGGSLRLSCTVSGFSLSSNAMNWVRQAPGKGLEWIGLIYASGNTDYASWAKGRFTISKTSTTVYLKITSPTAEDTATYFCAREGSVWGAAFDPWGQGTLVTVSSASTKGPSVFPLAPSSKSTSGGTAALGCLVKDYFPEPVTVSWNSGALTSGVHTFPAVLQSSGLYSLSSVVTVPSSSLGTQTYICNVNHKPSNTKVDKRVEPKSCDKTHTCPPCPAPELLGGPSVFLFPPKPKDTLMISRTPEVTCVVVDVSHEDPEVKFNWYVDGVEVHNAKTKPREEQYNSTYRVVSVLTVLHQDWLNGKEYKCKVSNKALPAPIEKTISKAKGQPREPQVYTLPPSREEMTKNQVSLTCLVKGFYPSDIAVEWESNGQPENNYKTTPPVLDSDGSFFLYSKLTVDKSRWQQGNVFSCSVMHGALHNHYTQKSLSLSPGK
light: AYDMTQSPSSVSASVGDRVTITCQASQSISNWLAWYQQKPGKAPKQLIYAASTLASGVPSRFKGSGSGTDFTLTISSLQPEDFATYYCQQGYSNSNIDNTFGGGTKVEIKRTVAAPSVFIFPPSDEQLKSGTASVVCLLNNFYPREAKVQWKVDNALQSGNSQESVTEQDSKDSTYSLSSTLTLSKADYEKHKVYACEVTHQGLSSPVTKSFNRGEC
notes: as for B2
B5: IgG1-G28.1 (antibody)
heavy: not shown
light: DIQMTQSPASLSASVGETVTITCRTSENVYSYLAWYQQKQGKSPQLLVSFAKTLAEGVPSRFSGSGSGTQFSLKISSLQPEDSGSYFCQHHSDNPWTFGGGTELEIKRTVAAPSVFIFPPSDEQLKSGTASVVCLLNNFYPREAKVQWKVDNALQSGNSQESVTEQDSKDSTYSLSSTLTLSKADYEKHKVYACEVTHQGLSSPVTKSFNRGEC
notes: IgG1,kappa
B6: IgG1-G28.1-E430G (antibody)
heavy: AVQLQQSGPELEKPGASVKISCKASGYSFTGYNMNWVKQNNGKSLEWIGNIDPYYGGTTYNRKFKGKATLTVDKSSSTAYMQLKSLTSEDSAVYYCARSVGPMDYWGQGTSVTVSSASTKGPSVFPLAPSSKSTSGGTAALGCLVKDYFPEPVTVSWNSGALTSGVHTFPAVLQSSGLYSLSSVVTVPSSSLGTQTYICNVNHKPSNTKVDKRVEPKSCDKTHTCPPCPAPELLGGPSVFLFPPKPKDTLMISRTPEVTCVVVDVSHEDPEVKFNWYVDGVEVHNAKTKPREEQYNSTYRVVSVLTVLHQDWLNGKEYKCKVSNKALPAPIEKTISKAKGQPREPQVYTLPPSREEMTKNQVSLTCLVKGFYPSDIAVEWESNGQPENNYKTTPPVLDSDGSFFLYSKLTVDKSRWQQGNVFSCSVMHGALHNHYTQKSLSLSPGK
light: B5 light
notes: as for B2
B7: IgG1-010-H5L2-E430G (antibody)
heavy: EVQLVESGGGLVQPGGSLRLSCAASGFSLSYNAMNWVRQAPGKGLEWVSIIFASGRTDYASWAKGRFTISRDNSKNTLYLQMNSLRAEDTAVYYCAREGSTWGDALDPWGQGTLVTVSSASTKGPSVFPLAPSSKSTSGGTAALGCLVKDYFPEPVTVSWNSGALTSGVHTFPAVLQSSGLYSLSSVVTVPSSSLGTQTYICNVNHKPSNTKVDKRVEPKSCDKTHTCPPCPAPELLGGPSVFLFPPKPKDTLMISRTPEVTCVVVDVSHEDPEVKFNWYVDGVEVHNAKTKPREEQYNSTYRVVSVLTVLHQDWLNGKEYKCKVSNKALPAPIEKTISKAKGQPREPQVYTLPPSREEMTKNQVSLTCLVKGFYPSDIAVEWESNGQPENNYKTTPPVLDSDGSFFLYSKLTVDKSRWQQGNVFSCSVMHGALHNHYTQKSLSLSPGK
light: B1 light 2
notes: as for B2
B8: IgG1-004-H5L2 (antibody)
heavy: not shown
light: B2 light
B9: IgG1-016-H5L2-F405L-E430G (antibody)
heavy: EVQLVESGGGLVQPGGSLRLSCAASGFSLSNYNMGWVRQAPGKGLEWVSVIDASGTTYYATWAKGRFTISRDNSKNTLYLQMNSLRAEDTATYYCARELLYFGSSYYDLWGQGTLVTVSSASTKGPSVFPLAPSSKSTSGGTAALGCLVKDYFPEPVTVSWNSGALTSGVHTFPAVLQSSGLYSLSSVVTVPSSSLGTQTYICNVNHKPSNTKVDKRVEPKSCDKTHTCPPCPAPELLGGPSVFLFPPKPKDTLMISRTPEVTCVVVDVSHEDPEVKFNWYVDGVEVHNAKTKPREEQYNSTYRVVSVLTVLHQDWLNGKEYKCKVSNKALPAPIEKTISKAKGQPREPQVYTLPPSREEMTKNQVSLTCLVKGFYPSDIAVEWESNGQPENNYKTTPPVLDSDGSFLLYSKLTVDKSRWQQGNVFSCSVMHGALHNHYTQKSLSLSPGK
light: B1 light 1 with S90C
notes: IgG1,kappa with F405L and E430G (EU numbering)
B10: IgG1-016-H5L2-LC90S-F405L-E430G (antibody, V domains shown)
VH: EVQLVESGGGLVQPGGSLRLSCAASGFSLSNYNMGWVRQAPGKGLEWVSVIDASGTTYYATWAKGRFTISRDNSKNTLYLQMNSLRAEDTATYYCARELLYFGSSYYDLWGQGTLVTVSS
VL: DVVMTQSPSTLSASVGDRVTITCQASQNIDSNLAWYQQKPGKAPKFLIYYASNLPFGVPSRFKGSGSGTEFTLTISSLQPDDFATYYCQSADVGSTYVAAFGGGTKVEIKR
notes: IgG1,kappa; light chain C90S, heavy chain F405L and E430G (EU numbering)
B11: IgG1-016-H5L2 (antibody)
heavy: not shown
light: B1 light 1 with S90C
notes: Humanized, IgG1,kappa
B12: IgG1-37.3 (antibody)
heavy: not shown
light: DIQMTQSPASLSVSVGETVTITCRASENIRSNLAWYQQKQGKSPQLLVNVATNLADGVPSRFSGSGSGTQYSLKINSLQSEDFGTYYCQHYWGTTWTFGGGTKLEIKRTVAAPSVFIFPPSDEQLKSGTASVVCLLNNFYPREAKVQWKVDNALQSGNSQESVTEQDSKDSTYSLSSTLTLSKADYEKHKVYACEVTHQGLSSPVTKSFNRGEC
notes: IgG1,kappa
B13: IgG1-37.3-E430G (antibody)
heavy: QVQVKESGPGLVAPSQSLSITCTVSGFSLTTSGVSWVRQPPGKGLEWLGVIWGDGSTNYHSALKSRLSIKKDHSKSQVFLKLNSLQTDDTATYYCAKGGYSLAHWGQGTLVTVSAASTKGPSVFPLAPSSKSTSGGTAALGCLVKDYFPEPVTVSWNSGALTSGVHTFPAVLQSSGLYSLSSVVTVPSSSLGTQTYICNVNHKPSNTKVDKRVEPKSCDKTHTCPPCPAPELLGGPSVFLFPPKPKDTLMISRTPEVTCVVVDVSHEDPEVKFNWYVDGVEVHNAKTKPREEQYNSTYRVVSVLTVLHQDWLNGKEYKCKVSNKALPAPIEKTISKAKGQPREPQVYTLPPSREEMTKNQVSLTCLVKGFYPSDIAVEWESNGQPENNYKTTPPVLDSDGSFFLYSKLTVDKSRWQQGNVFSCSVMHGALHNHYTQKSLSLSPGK
light: B12 light
notes: as for B2
B14: IgG1-005-H1L2 (antibody)
heavy: not shown
light: B4 light
notes: Humanized, IgG1,kappa
B15: IgG1-010-H5L2 (antibody)
heavy: not shown
light: B1 light 2
notes: Humanized, IgG1,kappa

molecular target: T1, human (Homo sapiens) CD37; experiment: flow cytometry, A488-labeled antibody on B cells in human whole blood; average of 6 donors
Method: (§1) Cells were pelleted and washed twice in 150 μL FACS buffer and resuspended in 150 μL TO-PRO-3 (end concentration 0.2 μM; Molecular Probes, cat no. T3605). Samples were measured by flow cytometry using an LSRFortessa flow cytometer. Binding is expressed as geometric mean of A488 fluorescence intensity for viable TO-PRO-3⁻/CD14⁻/CD19⁺ B-cells (human) or viable TO-PRO-3⁻/CD14⁻/CD19+/CD20+ B-cells (cynomolgus monkey). Log-transformed data were analyzed using best-fit values of a non-linear dose-response fit in GraphPad PRISM.

Binder | EC50 [µg/mL]
B1 | 0.85

Molecular target: T2, cynomolgus monkey (Macaca fascicularis) …
Experiment: flow cytometry on CHO cells expressing cynomolgus monkey CD37
Method: (§2) Binding to cell surface expressed CD37 (Daudi cells, CHO cells expressing cynomolgus CD37) was determined by flow cytometry. Cells, resuspended in RPMI containing 0.2% BSA, were seeded at 100,000 cells/well in polystyrene 96 well round-bottom plates (Greiner bio-one Cat #650101) and centrifuged for 3 minutes at 300×g, 4° C. Serial dilutions (0.003-10 μg/mL final antibody concentration in 3.33× serial dilutions) of CD37 or control antibodies were added and cells were incubated for 30 minutes at 4° C. Plates were washed/centrifuged twice using FACS buffer (PBS/0.1% BSA/0.01% Na-Azide). Next, cells were incubated for 30 minutes at 4° C. with R-Phycoerythrin (PE)-conjugated goat-anti-human IgG F(ab′)2 (Jackson ImmunoResearch Laboratories, Inc., West Grove, Pa.; cat #: 109-116-098) diluted 1/100 in PBS/0.1% BSA/0.01% Na-Azide. Cells were washed/centrifuged twice using FACS buffer, resuspended in 30 μL FACS buffer and analyzed by determining mean fluorescent intensities using an Intellicyt iQue™ screener (Westburg). Binding curves were generated using non-linear regression (sigmoidal dose-response with variable slope) analyses within GraphPad Prism V6.04 software (GraphPad Software, Sand Diego, Calif., USA).
Binding to CHO cells expressing cynomolgus monkey CD37 was determined by flow cytometry using a method as described above.

Binder | binding result
B2 | binds
B3 | binds
B4 | binds
B5 | no binding (tested: 0.003-10 µg/mL)
B6 | no binding (tested: 0.003-10 µg/mL)
B7 | binds

molecular target: T1, human (Homo sapiens) CD37; experiment: flow cytometry on Daudi cells
Method: as §2

Binder | binding result
B8 | binds
B2 | binds
B3 | binds
B9 | binds
B10 | binds
B11 | binds
B12 | binds
B13 | binds
B4 | binds
B14 | binds
B5 | binds
B6 | binds
B15 | binds
B7 | binds

Molecular target: T2, cynomolgus monkey (Macaca fascicularis) …
Experiment: flow cytometry, A488-labeled antibody on B cells in cynomolgus monkey whole blood; average of 4 animals
Method: as §1

Binder | EC50 [µg/mL]
B1 | 0.63
